Laboratory results from patent US20240352093A1, “PEPTIDE AND GELATIN HYBRID HYDROGELS AS ECONOMICAL ALTERNATIVES TO COMMON BASEMENT-MEMBRANE MATRICES” (AGENCY FOR SCIENCE, TECHNOLOGY AND RESEARCH, priority 2021, published 2024).
No end group written: not given here.

Assays:
SW480 tumor spheroids = assay: Cell viability (MTS) of SW480 tumor spheroids cultured in hydrogels; type: cell-based, human; settings: Day 7; hybrid hydrogels peptide_0.25%/G_3% (FIG. 12B)
Description: Human hepatocellular carcinoma HepG2 and human colorectal adenocarcinoma SW480 were cultivated in Dulbecco's Modified Eagle Medium (DMEM), supplemented by 10% Fetal Bovine Serum and 1% Penicillin, incubated at 37° C., 5% CO2. To prepare the tumor spheroids, 200 μL of cell suspension (3500 cells/mL) were seeded per well onto 96-well ultralow adhesion round bottom plates (Corning, U.S.A.). After which, the plate was centrifuged for 5 min at 1500 rpm) and incubated at 37° C. for 2-3 days for the cells to assemble into tumor spheroids. The IVK8/gelatin hydrogels were then prepared according to the steps in Section 2.2 and was used right after mixing the peptide and gelatin together. A positive control group was set up using the basement membrane product, Geltrex™ (Thermofisher, U.S.A.). Geltrex was kept in an ice bath during the experiment. The hydrogels were transferred to the tumor spheroids by first removing 150 μL of the spent medium. Subsequently, 70 μL of the hydrogels were added per well and the samples and incubated at 37° C. for 30 min before 100 μL were added to each well. The spent medium was replaced once every 2 to 3 days by removing 80 μL medium and adding 80 μL fresh medium. The growth of the tumor spheroids was monitored over time using DMil inverted light microscope (Leica, U.S.A.).
The viability of tumor spheroids cultured in the hydrogels for 7 days was determined by the CellTiter 96 AQueous One Solution Cell Proliferation Assay (MTS) (Promega, U.S.A.). Briefly, 80 μL of the spent medium was removed from each well containing the tumor spheroids. Next, 80 μL containing DMEM: MTS at 1:1 volume ratio was then added back into the wells. The plate was then incubated at 37° C. for 4.5 h. After which, the medium was pipetted several times to break up any aggregates that may be present and 100 μL of this solution was transferred to a fresh 96 well plate. The absorbance of the samples was measured at wavelength 490 nm using a microplate reader (Tecan, Switzerland).

[1] = Transparency and clarity of hydrogels (tube images, light microscopy); type: physicochemical; settings: SW480 spheroids Day 7 (FIG. 13)
Description: IVK8 was dissolved in 300 mM sucrose sterile solution at a peptide concentration of 1.0% wt/vol. and stored at 4° C. until required. The peptide remains a solution at cold conditions (4° C. or ice bath). Gelatin was dissolved using sterile DI water at 60 mg/ml at 60° C. To form the hydrogel, gelatin was removed from the warm water bath and the cold IVK8 solution was added to the gelatin. DMEM was then added to this mixture at a volume ratio of 3:7 DMEM: mixture and was left to stand at 37° C. for 10 min for gelation to occur. The procedure for preparing IVK8 hydrogels was the same. Once formed, the gels remain stable at temperatures between 25 to 37° C. Similarly, the other peptide/gelatin hydrogels may be prepared by the same method described for IVK8, further detail and modifications of the general procedure may be found in WO2021015675. For example. IIK8, ILK8, IVK12, and IIK12 may be used instead of IVK8 to prepare the peptide/gelatin hydrogel. It may be observed from FIGS. 10A to 10 that shorter peptides result in clearer hydrogels. […] The high opacity of IVK12_0.25%/Gelatin_3% (FIG. 11D) and IIK12_0.25%/Gelatin_3% (FIG. 11E) may make them less suitable for 3D culture of tumor spheroid due to difficulties in observing the spheroids.

[2] = Water retention of IVK8 peptide hydrogel; type: physicochemical; settings: peptide hydrogel in water at high concentrations
[3] = Gelation time by vial tilting method; type: physicochemical; settings: 2% wt/vol.
Description: Vial tilting method was applied to determine the gelation time of the hydrogels. […] Rheology experiments were performed on a control-strain rheometer (ARES G2, TA instruments), as described previously. Briefly, a parallel plate measuring geometry (8 mm diameter, gap 1 mm) with oscillatory strain of 1% and the dynamic storage modulus (G′) and loss modulus (G″) were examined as a function of frequency from 1 to 100 rad/s. In addition, a flow sweep to study the viscosity changes as a function of shear rate of hydrogel samples.

| Sequence | cell viability of SW480 tumor spheroids compared to Geltrex (SW480 tumor spheroids) | opacity of peptide/gelatin hybrid hydrogel in spheroid culture [1] | water retention [2] [%] | gelation time ([3]; 37° C.) | gelation time ([3]; room temperature (23-24° C.)) [min] |
| --- | --- | --- | --- | --- | --- |
| IRIKIEIEIRIK (IRIKIEIEIRIK-NH2) [IIK12, self-assembling peptide] | significantly lower viability | more opaque |  |  |  |
| IEVEIRVK (IEVEIRVK-NH2) [IVK8, self-assembling peptide] | no significant difference | least opaque | ~99 | less than 30 min | ≤ 60 |
| IELEIRLK (IELEIRLK-NH2) [ILK8, self-assembling peptide] | no significant difference | more opaque |  |  |  |
| IEIEIRIK (IEIEIRIK-NH2) [IIK8, self-assembling peptide] | no significant difference | least opaque |  |  |  |
| IRVKIEVEIRVK (IRVKIEVEIRVK-NH2) [IVK12, self-assembling peptide] | significantly lower viability | most opaque |  |  |  |
